The record followed here is the NTF2 design screens of Basanta et al. (2020).

A short description of the data set: protease stability score; higher = more stable; yeast display proteolysis, trypsin and chymotrypsin.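 Also: relative to predicted unfolded state with 0 unfolded-like and 1 meaning tenfold more protease.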
The sequence “DEDEELMRRVVEIYIRALHTGDEDWMTHLADPHVKVDLLIDGRETELHGREWVVEIARKLGVKHSEVKDVHLVGDYIVIHLHLRIGDKEEEQDLIFLKVDGKWTLESSTIRRI” returned a protease stability score of 1.53.

Sequence “DEDEELRRRRSEIVRKDWETGDWKSIEELADPHVKNHIGEYLAVGRENLVFVLEHFLKVLGVKHREIHSSELHIVNGRAEVHIDTRLVVNGRNIKTHVRFIFDKVNGRWVMHSVEFHVD” registered a protease stability score of 1.25.

For “DEDEELSERATREFIENWKTGNFDDLMKLLDPNVKLDVGDKRHHGRERMVRSMVEILKHLGANVIDIHDTDVYDGRIDIHLRLEAENHHSILTIHIEKINGRWLIRSMEIK”, the protease stability score came to 1.26.

“DEDEELSERVTREWLHAILTGDEDWLRRYVDPHVRVHINVDGKDRTVHGMDFLIEHLRRVPNVRFIIKHMEVETQGEKVIIRVNVRIRVGDKEHETEIILIVLKVDGRWIATSIFIHIR” had a protease stability score of 0.231.

In turn, “DEDEELTRQIIEHIERNIETGDERRYRELVDPNARVDYNGVDKHGMHAILEVWNHIQHEFRGATIEHSRVRDWRFQGDKVILNFEHYFRIGDKNWRLDTRIIVDKVDGRWVIREVQIR” had a protease stability score of 1.47.

With “DEDEELVETHIRHEIRSAKTGDEESLHRLLDPNTRIEIGDKVFVGRETFTKWLRKLLHDAGVSKFEVHVRDMEIQGEKLILDGEWHINGVTIRTRIIVHKVNGRWHNKHMQME”, the protease stability score is 0.582.

As for “DEDEELVKEWFEILMHKVITGDEDTLRNLADPNVRVDINGRDHHGREKFIEVYRRLWEDFGIDYIDSDVEEMKVYDGQAEVTIRLEIRFNGRTLELTTHYDVEKVDGKWRLRRHEVR”, the protease stability score turned out to be 1.29.

On to “DEDEELVKKFFKEHSESNRTGDWHTIMKQADPNARIFINGVILHGRELFTEHMMRMVRRADHFHFHLEDMRVINGRAELDVHVHLNINGKIDNVETHFIVIKINGRWRLEESRFH”, for which the protease stability score was 0.661.

Turning to “DEDEELVRHAYEDWLHTVRTGDEHTLNKLFDPHVRMHYDGVESHGWRIAHHFHRRFKNMQVRIDDEHIEVYGEFARVESKITLDVGEYKIDLTLIVIMIKVNGRWKIHSVRIEKR”, the protease stability score was 1.17.

The sequence “DEDEELYEKFTRDLNHSLMTGDEEVMRELADPHVKVDFNGRELHGWEAVTFLLRVMGIDHLELKDIRLQGDKARNYTILRFNGRTSTLIVVLHKVNGKWIIESFEYR” returned a protease stability score of 1.07.

“DEDEEMAHWAMEVLTKLIRTGDEDTILDMIDPHARIVYGDKTHHGREHFEKIIHELGVKVFEVHEIENQGEKVTIHGRQHVNGRTYDVKLFVQKVNGRWYIKRVHIK” showed a protease stability score of 1.42.

“DEDEEMFHRAVRLLLEHSRTGDEELTTKMADPHVKVDINGRDLIGRESYSRWWSEKAEQMRIDFRFRRVEVFDGVIFIDFKLIVDVNGRRLEFELHILILKIDGRWIIKEVHVK” yielded a protease stability score of 0.68.

“DEDEEMMEHLIRILVEVLKTGDWKELLKLADPHVRQDVNGVDIHGREDVSRRLANQAKELRLELHLQDVKVWNGRVDFDSRLHINQGEKYVQLHVRIITEKIDGRWRITEIHVR” gave a protease stability score of 1.62.

“DEDEEMSERLSRIIVKALRTGNEHVLRRLVDPDVLSSIDGRKHHGWEDWHEFLKRLGHENVDVQLEHLRFQGNKIELDMILRVGDKTHTQHIHILKVDGRWTMHEVRIK”: the protease stability score turned out to be 1.42.

On to “DEDEEMSKLLLEVSERVIETGDEHLWTRLLDPNVRIHLIIGDKTIELIGRERAHELLHHILERYKNATLRLRSVEIQGDKVIVESELNVGDKRIKQIYIWTKINGQWVLEEVNIEVR”, for which the protease stability score was found to be 1.44.

For “DEDEEMSRIALNLFIHAMDTGDEHTLTHLMDPNVQLQINGREIIGREEVIRFVRELGVKHVKSHRLRDMELQGDKIIIDAEVEESQGDKEHHFRHTIVFRKVNGRWIIQSIKIK”, the protease stability score is 2.13.

Turning to “DEDEEMVEKALELMAETHETGDEDTLHDFFDPHTRMELQIGDKTIRDHGRHAMHWLLRILGINHIEIHHRTVRLINGRIHLHINGSINVNGQEIESRIHIYSEKIDGRWRVTRLEYRFH”, the protease stability score was determined as 1.31.

With “DEDEENAKMFTELLWRVLLTGDEELFKEMADPHVRVIFDGREIHGRDDIAHWITEMRFEINILRINDVRLVGDYIKIDGTMERQGEINGKRIRSSHRIIIFVRKINGKWHLEQLHFS”, the protease stability score worked out at 2.26.

The sequence “DEDEENARKVSKKYKEIVLTGDEHALERLIDPNVRIDFNGKEFHGREDLSRLFHERFKRADHIEFDVKHINVQGNKVDLDVREIEIVGDKTHVHNVILHVLKIDGRWLIKEIRVH” returned a protease stability score of 1.26.

With “DEDEENARRFIHELSRILETGDEERLDEMADPDVRIIIGEKHLHGREEFRKWMRHLLKRVKNMQIEVQLTSSEIVGEWVNLDTTLIIRVGDKHYEHRTVVIVLKIDGRWFLHQIHFK”, the protease stability score was 1.79.

“DEDEENFERLVHLTLHYLLTGDFEDFNHLADPHVKLNVNGQQHVGREKWSELLHLFGINHMQIEERDLRVIGDKVRLDVRGTSQVGDKEHEVHIHIHAQKVNGRWTVTEMQINTE”: the protease stability score is 2.1.

On to “DEDEENIRKEVEIFKHLLETGNEQEMSKLADPNTRFYYGDKTIHGREEMIKFLHEEWRHLGVKHNEYRVKEMRSINGRAIIHGELIWKSENEIIHRDVLIIARKVDGKWVSESVHVH”, for which the protease stability score stood at 1.23.

As to “DEDEENTRKLLESYIRVFRTGDEDRMIELADPDVRLKIDGVTRHGREDWMRHWLNLVERMGANVSELTRFDVFDGQVHSHHKLVQGDKERKMHLILIKVDGRWFLHEISEQ”, the protease stability score was 0.157.

The sequence “DEDEENTRQAIDRIIRSWMTGDEKTMTELLDPRVRVEQGDKEFHGREDYTRWINEMRITHIDLRSIEKIDGRLHVHLEFDESVNGKRHRVDVELTIVKINGQWFLESVRIR” gave a protease stability score of 0.681.

Sequence “DEDEEQAEKMIKIWIHDMATGNEESLVRLADPRVRSEVDGVQLHGRESLRKFLHDEWRDLGVDRIQVHVRRYHVFDGRLHLDGEVIVNGQDKTMHIVLIKVDGRWHLKSVHFR” came in with a protease stability score of 2.14.

Consider “DEDEEQAERAIRIYTEVLNTGNEEESERMADPHVRIIVNGVILHGREMFYQYVHEWRVDIRVILRHVKVFEGWVDVEGEFNSHLEVNGRHENNRSKVRLHILKVNGVWLIHEVRVH”, for which the protease stability score was 1.5.

Consider “DEDEEQARRLAELIRHLLITGDEYVNRKMADPRVQFILHQGDKNYLHHGRDEVVRRLRELWEEWGFDQIHVNLDDVKIVNGRVIIHTRLQVGDKHMELRFIIEKIDGKWLVTHEQIHLH”, for which the protease stability score came to 1.62.

“DEDEEQLHEMVRIFLENMQTGNFEALLNYMDPNAKRRDVQGDKDITYIGREQAKEHDEKLDRHLGVKHFEIKRITIQGEKADIDTRLLFNGQLRDVRIHIIIVNGKLSYLEVQID” registered a protease stability score of 0.897.

“DEDEEQLKEMWREFLEASRTGDEHRIKELADPNARLRQGDKRFHGREEFSRLIVEMRIRHIEIRRIRVVGDKIEITTELHVIYNGQHIEVDTHVIILKVNGRWSLTEMEER” gave a protease stability score of 0.905.

The sequence “DEDEEQLRKWTRLTWRDMITGNEDSLHRLFDPHTRLDIDGVDVHGMESVSRKISDEMKRFDHVDFHLHDMRIFNGRAHIDGRLRFHINGVHLERREVIVILKINGQWFNEQISYK” returned a protease stability score of 0.196.

As to “DEDEEQTRRAWKINLEQWLTGDEELLDRNLDPDVRNDVNGVRLHGMELLTEMLHRFIEKLKGATIRLKDFRLRFYGNKIEVRVETIVHVNGVQIHVELIFIATKVDGRWRIHEISHHNR”, the protease stability score is 0.868.

The sequence “DEDEERAKKLAEDTLHSWRTGNEEHMIKLADPNVRVEWNGKDFVGREEFKRSVHKMLRDLGVDNIEVRLDHIEVDEDHAIVYGEVIYNGRISQIEWVFRKVNGRWYLHRMHIRDR” yielded a protease stability score of 1.54.

Sequence “DEDEERAQEMAKRLEDSLHTGDEETHQNLMDPHMRLRVNGKEFHGRENILHFLREWRIHHLDVRLRHIDDRGEYIIINSEVRVDGNIDGKRTELHTISEIILVKVDGRWMTDEFRFH” returned a protease stability score of 0.72.

As to “DEDEERARHHLEEIIKTIHTGDENLYEKLVDPNAWMDINGRELHGREEVVKYWSHEAHRFGIDVIRLRHEERVGNYVHSDTDLEVNGKTIKTRLVMLKINGKWVIQSFEMH”, the protease stability score is 0.75.

Turning to “DEDEEREKVYHELHLHNLLTGNEEILANLVDPHVLSIVNGKELHGMDEVRKLWQELGWTWHDIHIHDEKRIGNKVHIDVRLNGNINGRTMIVRAKITITKINGRWYVSHIEII”, the protease stability score stood at 0.718.

“DEDEERIREVVERFLRDWETGDEKSLKHLLDPNVRMIIDGVDIVGREEALRLMKKLVDDLGIKHVHFHRVRLDVQGDKVRSEVDGEFEVGDKHTKVHTLLILRKVDGKWIFESVHMDHK” gave a protease stability score of 2.27.

In turn, “DEDEERKHKILEIWLHSLETGDETKLEEMVDPNVRIEFNGREHHGWEHFLEFVRVFGAKVLHLEDEREDGNKIIHHIVVHVNGRRHTLIVIAHKVNGRWVISSIRFE” came in with a protease stability score of 1.45.

For “DEDEERMEHMIHLLDHALETGDWRTISKLIDPHVRLEVNGVNFVGREEIITFLLEIRMSSRIHIKDFRVVGDKLEMEIDSHIDLHYNGKTYQTRVESRLIIKKVNGRWILQESSER”, the protease stability score came out at 1.15.

“DEDEERMHWMVEVLLRMLETGNEEIVKRLVDPNARVHTEDHSSMGREEFSRFMLELAKRFDVFHDVELKHVEVQGEKIILDGKFHIEVNGRRNYLDIELIIIKIDGRWKIEEVRFH” yielded a protease stability score of 1.25.

“DEDEERNEHFLRLYEKITTTGDEDIAKELIDPNARLHVNGKDIHGRESVVKWLKELRIHHLKLRHFRIVGEKAENDISYDVEVDGRTNRRDVHIYLLKIDGRWVIHSIEVR” gave a protease stability score of 1.84.

Sequence “DEDEERSERLLHMVIELLLTGDEEKWNNLLDPHARVEIDGQERHGRHIVTHFLTRFKNVRMHIHDVKVYGEKVDITTEITFNGKHINVHIELVFVNGKMTSVRFEWHRH” registered a protease stability score of 2.02.

Regarding “DEDEERVKLASELYTHIMHTGDERLTKEFFDPRVRSDINGRELHGREIITEMVSRYKNMTLHSHREEVQGEWAFIDGRMEYGDKEWKIHIITLKVNGRWVVTEIEFH”, the protease stability score is 0.778.

The sequence “DEDEERVREFFELFFKALFTGDEEELKRLLDPHVKLIINGREFVGREQMTRLLNEIRVSWTELRIRRIERQGDKVIFDAEVHVERHQGDYHEQKTIKVILYMRKVDGRWLLESIEIR” yielded a protease stability score of 2.38.

“DEDEESATKFTRELIHHTRTGDEESLKELADPNVRIDFNGVEIHGMEWWLKLHVHLGAKIILRLKDIETIGDKVHIHGEREIRVNGKNIRTKIRILVEKVDGRWVLKHEELG”: the protease stability score amounted to 1.21.

As for “DEDEESLRRMTTLLLYLWLTGDFEEMQKLADPRVKLDAENRNVHGREEWYEFMKRLGVKHSEVHHLRVINGRIDVETRVDVDGQEVRIRFIIDKVDGRWFLRRVYVH”, the protease stability score came out at 1.85.

“DEDEESNKLFEDLLSEAIRTGDWRMLRHLADPNVRVDINGKKLVGWEELMRFMHELRIDRHHSRIHDSDSQGDKMHIDVRLEIDGNINGRKHRFRIESELILVKVNGRWLLEESRVG” had a protease stability score of 1.67.

In turn, “DEDEESSESFYRLWVELFETGNFEILERLFDPHVRIKIGDKHIHGMEEHIRESFHIIERFKGVQIRVDEVRLFDGRMDVHGELIINGQSVRMRIIVRKVNGRWHLTEMILD” returned a protease stability score of 1.48.
